The target of data set [1] is Vps4_(ΔMIT, E233Q) (solution experiments) (S. cerevisiae) (UniProt P52917). Put plainly: AUC.
The data set “AUC” concerns the molecule itself. Put plainly: AUC.

Consider two molecules from paper PMC2632936 (Journal of molecular biology, 2008).

As usually defined, the stoichiometry N is a count of units in the complex or per binding partner. Turning to “Vps4_(ΔMIT, E233Q) (solution experiments) (from UniProt P52917 104-437) (domain or fragment)”, the stoichiometry N in data set [1] came to 2.19.

B1: full length Vps4_(E233Q) (S. cerevisiae) (enzyme, UniProt P52917 1-437, looked up)
chain: MSTGDFLTKGIELVQKAIDLDTATQYEEAYTAYYNGLDYLMLALKYEKNPKSKDLIRAKFTEYLNRAEQLKKHLESEEANAAKKSPSAGSGSNGGNKKISQEEGEDNGGEDNKKLRGALSSAILSEKPNVKWEDVAGLEGAKEALKEAVILPVKFPHLFKGNRKPTSGILLYGPPGTGKSYLAKAVATEANSTFFSVSSSDLVSKWMGESEKLVKQLFAMARENKPSIIFIDQVDALTGTRGEGESEASRRIKTELLVQMNGVGNDSQGVLVLGATNIPWQLDSAIRRRFERRIYIPLPDLAARTTMFEINVGDTPCVLTKEDYRTLGAMTEGYSGSDIAVVVKDALMQPIRKIQSATHFKDVSTEDDETRKLTPCSPGDDGAIEMSWTDIEADELKEPDLTIKDFLKAIKSTRPTVNEDDLLKQEQFTRDFGQEGN
The Kd is the equilibrium constant for the complex coming apart. Low values mean a tighter complex, high ones a looser complex. For B1, in “AUC”, the Kd is less than 5 µM and the “stoichiometry N” value was 1.97.
